Key:
3×MBT domain of L3MBTL1 = experiment: Triple SILAC pull-down, 3xMBT/3xMBTD355N ratio (cytoplasmic, nuclear and chromatin fractions of 293T cells); format: binding, human; settings: SILAC ratio 3xMBT vs 3xMBTD355N pull-down, 293T cells, all values in log base 2; for 3xMBT/D355N UNC Heavy: experiment with UNC0638 in heavy SILAC media; for 3xMBT/D355N UNC Light: experiment with UNC0638 in light SILAC media;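 for all read-outs here: proteins quantified with MaxQuant, requiring at least two unique peptides and quantification in both label directions, normalized to the mean of proteins from a digested loading control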
G9a and GLP = molecular target: T1, G9a and GLP (Homo sapiens, UniProt Q96KQ7+Q9H9B1); experiment: Triple SILAC pull-down after UNC0638 treatment of 293T cells, DMSO/UNC0638 ratio of protein captured by 3×MBT; format: cell-based; design: cells were treated for 24 hours with UNC0638 at 2.5 μM or DMSO vehicle control; endogenous in cells; host or cells: HEK 293T; settings: all values in log base 2; for Relative to UNC0638 UNC Heavy / Relative to UNC0638 UNC Light: SILAC ratio DMSO relative to UNC0638, pull-down with 3xMBT; for Relative to UNC0638 UNC Heavy: UNC0638 in heavy SILAC media; for Relative to UNC0638 UNC Light: UNC0638 in light SILAC media; for Relative to UNC0638 Average: average of UNC Light and UNC Heavy experiments;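 for all read-outs here: mass spectrometry (Q-Exactive) SILAC quantitation, DMSO/UNC0638 ratio computed after subtracting 3×MBTD355N mutant pull-down background, only proteins with at least twofold 3×MBT over mutant signal considered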
T1 sequence (Q96KQ7 2-1210 limits assumed): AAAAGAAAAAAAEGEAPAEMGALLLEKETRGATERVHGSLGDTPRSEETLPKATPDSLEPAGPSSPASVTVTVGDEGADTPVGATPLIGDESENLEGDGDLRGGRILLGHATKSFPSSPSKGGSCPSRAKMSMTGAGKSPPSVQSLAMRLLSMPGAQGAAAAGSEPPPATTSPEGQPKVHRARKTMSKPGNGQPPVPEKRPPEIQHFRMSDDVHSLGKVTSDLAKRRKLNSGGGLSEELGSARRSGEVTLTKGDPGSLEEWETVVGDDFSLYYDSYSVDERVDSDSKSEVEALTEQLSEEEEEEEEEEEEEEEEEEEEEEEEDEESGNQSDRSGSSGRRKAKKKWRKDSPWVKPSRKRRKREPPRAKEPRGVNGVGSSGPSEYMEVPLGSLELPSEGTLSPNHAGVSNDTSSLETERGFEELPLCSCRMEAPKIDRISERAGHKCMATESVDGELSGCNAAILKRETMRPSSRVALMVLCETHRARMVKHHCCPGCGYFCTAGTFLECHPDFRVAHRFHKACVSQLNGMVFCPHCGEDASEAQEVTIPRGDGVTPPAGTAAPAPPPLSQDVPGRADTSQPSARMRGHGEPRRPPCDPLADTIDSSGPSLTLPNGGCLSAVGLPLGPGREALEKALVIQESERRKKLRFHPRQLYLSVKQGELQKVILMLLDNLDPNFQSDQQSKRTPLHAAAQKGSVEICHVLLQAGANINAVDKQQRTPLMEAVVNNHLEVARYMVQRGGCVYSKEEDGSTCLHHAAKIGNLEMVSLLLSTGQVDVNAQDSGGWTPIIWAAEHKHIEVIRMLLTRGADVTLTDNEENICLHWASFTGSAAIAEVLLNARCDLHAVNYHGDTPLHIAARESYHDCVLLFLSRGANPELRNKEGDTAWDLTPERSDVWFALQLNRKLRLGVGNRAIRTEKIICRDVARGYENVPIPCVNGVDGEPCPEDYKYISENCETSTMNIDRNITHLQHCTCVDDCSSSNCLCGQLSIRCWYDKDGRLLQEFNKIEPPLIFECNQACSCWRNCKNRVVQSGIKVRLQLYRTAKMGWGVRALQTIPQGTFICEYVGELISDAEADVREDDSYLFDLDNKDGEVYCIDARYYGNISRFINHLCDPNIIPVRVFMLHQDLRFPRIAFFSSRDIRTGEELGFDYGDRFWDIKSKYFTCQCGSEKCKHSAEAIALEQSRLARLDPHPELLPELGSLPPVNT
T1 sequence (Q9H9B1 2-1298 limits assumed): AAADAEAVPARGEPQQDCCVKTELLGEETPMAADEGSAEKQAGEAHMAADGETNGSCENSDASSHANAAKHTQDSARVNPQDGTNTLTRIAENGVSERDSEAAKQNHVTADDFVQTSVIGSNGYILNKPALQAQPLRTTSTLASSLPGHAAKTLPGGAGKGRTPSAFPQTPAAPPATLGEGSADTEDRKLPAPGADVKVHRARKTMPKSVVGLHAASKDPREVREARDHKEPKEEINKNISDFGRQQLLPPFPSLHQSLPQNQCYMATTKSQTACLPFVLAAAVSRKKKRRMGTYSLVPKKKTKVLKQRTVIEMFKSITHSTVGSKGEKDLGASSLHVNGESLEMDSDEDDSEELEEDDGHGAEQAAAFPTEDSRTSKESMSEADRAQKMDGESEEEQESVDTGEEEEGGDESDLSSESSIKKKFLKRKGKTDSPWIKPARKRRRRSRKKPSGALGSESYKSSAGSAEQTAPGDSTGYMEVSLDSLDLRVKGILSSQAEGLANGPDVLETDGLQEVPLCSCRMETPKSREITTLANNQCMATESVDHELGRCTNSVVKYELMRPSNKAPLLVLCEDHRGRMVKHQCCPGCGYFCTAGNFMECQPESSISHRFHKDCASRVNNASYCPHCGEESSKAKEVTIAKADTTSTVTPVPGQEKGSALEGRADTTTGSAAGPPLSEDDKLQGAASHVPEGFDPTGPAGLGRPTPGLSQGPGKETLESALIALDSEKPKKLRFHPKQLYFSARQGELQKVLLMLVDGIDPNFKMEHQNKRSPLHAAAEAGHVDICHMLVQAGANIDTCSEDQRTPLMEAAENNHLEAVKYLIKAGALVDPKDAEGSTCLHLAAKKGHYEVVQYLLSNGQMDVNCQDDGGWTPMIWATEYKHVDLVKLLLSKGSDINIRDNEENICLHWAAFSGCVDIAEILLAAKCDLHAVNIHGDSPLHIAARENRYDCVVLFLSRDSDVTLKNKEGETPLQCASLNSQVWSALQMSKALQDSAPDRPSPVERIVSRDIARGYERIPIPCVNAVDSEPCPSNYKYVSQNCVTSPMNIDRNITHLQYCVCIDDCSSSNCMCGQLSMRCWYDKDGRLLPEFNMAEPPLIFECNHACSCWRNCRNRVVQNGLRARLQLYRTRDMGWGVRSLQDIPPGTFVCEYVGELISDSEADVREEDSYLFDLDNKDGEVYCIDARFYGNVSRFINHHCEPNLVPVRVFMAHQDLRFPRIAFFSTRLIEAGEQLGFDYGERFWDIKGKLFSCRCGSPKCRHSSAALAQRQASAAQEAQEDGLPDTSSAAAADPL

B1: TRIM28 (protein, UniProt Q13263 2-835, looked up)
Transcription intermediary …: AASAAAASAAAASAASGSPGPGEGSAGGEKRSTAPSAAASASASAAASSPAGGGAEALELLEHCGVCRERLRPEREPRLLPCLHSACSACLGPAAPAAANSSGDGGAAGDGTVVDCPVCKQQCFSKDIVENYFMRDSGSKAATDAQDANQCCTSCEDNAPATSYCVECSEPLCETCVEAHQRVKYTKDHTVRSTGPAKSRDGERTVYCNVHKHEPLVLFCESCDTLTCRDCQLNAHKDHQYQFLEDAVRNQRKLLASLVKRLGDKHATLQKSTKEVRSSIRQVSDVQKRVQVDVKMAILQIMKELNKRGRVLVNDAQKVTEGQQERLERQHWTMTKIQKHQEHILRFASWALESDNNTALLLSKKLIYFQLHRALKMIVDPVEPHGEMKFQWDLNAWTKSAEAFGKIVAERPGTNSTGPAPMAPPRAPGPLSKQGSGSSQPMEVQEGYGFGSGDDPYSSAEPHVSGVKRSRSGEGEVSGLMRKVPRVSLERLDLDLTADSQPPVFKVFPGSTTEDYNLIVIERGAAAAATGQPGTAPAGTPGAPPLAGMAIVKEEETEAAIGAPPTATEGPETKPVLMALAEGPGAEGPRLASPSGSTSSGLEVVAPEGTSAPGGGPGTLDDSATICRVCQKPGDLVMCNQCEFCFHLDCHLPALQDVPGEEWSCSLCHVLPDLKEEDGSLSLDGADSTGVVAKLSPANQRKCERVLLALFCHEPCRPLHQLATDSTFSLDQPGGTLDLTLIRARLQEKLSPPYSSPQEFAQDVGRMFKQFNKLTEDKADVQSIIGLQRFFETRMNEAFGDTKFSAVLVEPPPMSLPGAGLSSQELSGGPGDGP
B1 was tested, and the “3xMBT/D355N UNC Heavy” value (3×MBT domain of L3MBTL1) was 1.05 log base 2, the “3xMBT/D355N UNC Light” value (3×MBT domain of L3MBTL1) was 1.28 log base 2 and the “Relative to UNC0638 UNC Heavy” value (G9a and GLP) was 0.01 log base 2. The “Relative to UNC0638 UNC Light” value (G9a and GLP) was 0.10 log base 2 and the “Relative to UNC0638 Average” value (G9a and GLP) was 0.06 log base 2.

B2: TUBA1C (protein, UniProt Q9BQE3 1-449, looked up)
Tubulin alpha-1C chain: MRECISIHVGQAGVQIGNACWELYCLEHGIQPDGQMPSDKTIGGGDDSFNTFFSETGAGKHVPRAVFVDLEPTVIDEVRTGTYRQLFHPEQLITGKEDAANNYARGHYTIGKEIIDLVLDRIRKLADQCTGLQGFLVFHSFGGGTGSGFTSLLMERLSVDYGKKSKLEFSIYPAPQVSTAVVEPYNSILTTHTTLEHSDCAFMVDNEAIYDICRRNLDIERPTYTNLNRLISQIVSSITASLRFDGALNVDLTEFQTNLVPYPRIHFPLATYAPVISAEKAYHEQLTVAEITNACFEPANQMVKCDPRHGKYMACCLLYRGDVVPKDVNAAIATIKTKRTIQFVDWCPTGFKVGINYQPPTVVPGGDLAKVQRAVCMLSNTTAVAEAWARLDHKFDLMYAKRAFVHWYVGEGMEEGEFSEAREDMAALEKDYEEVGADSADGEDEGEEY
B2 was tested, and the “3xMBT/D355N UNC Heavy” value (3×MBT domain of L3MBTL1) was 0.42 log base 2, the “3xMBT/D355N UNC Light” value (3×MBT domain of L3MBTL1) was 1.45 log base 2 and the “Relative to UNC0638 UNC Heavy” value (G9a and GLP) was −0.83 log base 2. For the same molecule, the “Relative to UNC0638 UNC Light” value (G9a and GLP) was 0.93 log base 2 and the “Relative to UNC0638 Average” value (G9a and GLP) was 0.05 log base 2.

B3: CKAP2 (protein, UniProt Q8WWK9 1-683, looked up)
Cytoskeleton-associated …: MSTPAVPQDLQLPPSQRAQSAFKEQRRQKLKEHLLRRKTLFAYKQENEMLSSSRDQRVVTSEDQVQEGTKVLKLKTKMADKENMKRPAESKNNTVVGKHCIPLKPSNELTNSTVVIDTHKPKDSNQTPHLLLTEDDPQSQHMTLSQAFHLKNNSKKKQMTTEKQKQDANMPKKPVLGSYRGQIVQSKINSFRKPLQVKDESSAATKKLSATIPKATKPQPVNTSSVTVKSNRSSNMTATTKFVSTTSQNTQLVRPPIRSHHSNTRDTVKQGISRTSANVTIRKGPHEKELLQSKTALSSVKTSSSQGIIRNKTLSRSIASEVIARPASLSNDKLMEKSEPVDQRRHTAGKAIVDSRSAQPKETSEERKARLSEWKAGKGRVLKRPPNSVVTQHEPAGQNEKPVGSFWTTMAEEDEQRLFTEKVNNTFSECLNLINEGCPKEDILVTLNDLIKNIPDAKKLVKYWICLALIEPITSPIENIIAIYEKAILAGAQPIEEMRHTIVDILTMKSQEKANLGENMEKSCASKEEVKEVSIEDTGVDVDPEKLEMESKLHRNLLFQDCEKEQDNKTKDPTHDVKTPNTETRTSCLIKYNVSTTPYLQSVKKKVQFDGTNSAFKELKFLTPVRRSRRLQEKTSKLPDMLKDHYPCVSSLEQLTELGRETDAFVCRPNAALCRVYYEADTT
For B3, the “3xMBT/D355N UNC Heavy” value (3×MBT domain of L3MBTL1) was −1.81 log base 2, the “3xMBT/D355N UNC Light” value (3×MBT domain of L3MBTL1) was −1.33 log base 2 and the “Relative to UNC0638 UNC Heavy” value (G9a and GLP) was −0.12 log base 2. For the same molecule, the “Relative to UNC0638 UNC Light” value (G9a and GLP) was 0.05 log base 2 and the “Relative to UNC0638 Average” value (G9a and GLP) was −0.03 log base 2.

From patent US20140274782A1, “AFFINITY REAGENTS AND METHODS FOR DETECTION, PURIFICATION, AND PROTEOMIC ANALYSIS OF METHYLATED PROTEINS” (The Board of Trustees of the Leland Stanford Junior …, priority 2013, published 2014)
